Here are results for two substances from publication PMC3316158.

Assay [1] has as its target AtCaM6 (Arabidopsis thaliana calmodulin 6), recombinant (Arabidopsis thaliana) (UniProt Q03509). In words: native gel or EMSA. (In EMSA bound probe runs differently from free probe, usually more slowly.)
Assay [2] addresses BRI1 W980 peptide (Arabidopsis). The assay can be described thus: pull-down.

Turning to “Peptide representing the CaM-binding domain of mammalian CaMKII (Ca^2+/CaM-dependent protein kinase II)”, the stoichiometry N (mol equivalent of peptide per AtCaM6) in assay [1] is 1.

As for “His6–AtCaM7 (Arabidopsis thaliana calmodulin 7) (from UniProt P59220 1-149) (natural protein)”, the retained CaM7 with Ca^2+ relative to without Ca^2+ (densitometry) in assay [2] is 2.7 fold.
